Measured values from patent US20260159601A1.

Molecular target: human CD20 (human) (UniProt P11836)
Experiment: flow cytometry on a human B-cell lymphoma cell line, 30 min at 4 C, detection with FITC-labeled F(ab)'2 goat anti-human Fc-gamma-specific antibody, median fluorescence intensity

human CD20 (human), sequence (P11836 whole entry): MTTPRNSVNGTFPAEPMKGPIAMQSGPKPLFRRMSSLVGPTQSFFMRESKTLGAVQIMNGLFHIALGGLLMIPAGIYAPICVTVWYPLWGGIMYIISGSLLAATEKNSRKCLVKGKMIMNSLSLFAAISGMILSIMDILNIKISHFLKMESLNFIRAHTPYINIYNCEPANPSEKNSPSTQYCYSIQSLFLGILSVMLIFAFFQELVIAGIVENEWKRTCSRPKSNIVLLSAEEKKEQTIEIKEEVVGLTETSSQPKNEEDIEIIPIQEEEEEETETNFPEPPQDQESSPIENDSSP

rituximab (antibody)
EC50 (read off the curve): 5 nM
